This assay has as its target Recombinant SARS-CoV-2 RBD (residues R319–F541) (SARS-CoV-2, UniProt P0DTC2). Nature of the assay: SPR. Particulars: both partners purified.

B1: REGN10987 (class III) (antibody, V domains shown)
VH: QVQLVESGGGVVQPGRSLRLSCAASGFTFSNYAMYWVRQAPGKGLEWVAVISYDGSNKYYADSVKGRFTISRDNSKNTLYLQMNSLRTEDTAVYYCASGSDYGDYLLVYWGQGTLVTVSS
VL: QSALTQPASVSGSPGQSITISCTGTSSDVGGYNYVSWYQQHPGKAPKLMIYDVSKRPSGVSNRFSGSKSGNTASLTISGLQSEDEADYYCNSLTSISTWVFGGGTKLTVL
A word on the Kd: it is the constant that tells how readily two partners part at equilibrium. For the molecule B1, the Kd is under 0.01 nM.

For the origin of these results see paper PMC8710476 (Frontiers in Immunology, 2021).
